Sequences and labels used below:
B1: MRG domain of MRG15 (residues 155–323) (domain or fragment)
chain: not shown
B2: Pf1 PHD1/MBD (residues 48–241) (domain or fragment, human, UniProt Q96QT6 48-241, looked up)
chain: RRSGRATNHDSCDSCKEGGDLLCCDHCPAAFHLQCCNPPLSEEMLPPGEWMCHRCTVRRKKREQKKELGHVNGLVDKSGKRTTSPSSDTDLLDRSASKTELKAIAHARILERRASRPGTPTSSASTETPTSEQNDVDEDIIDVDEEPVAAEPDYVQPQLRRPFELLIAAAMERNPTQFQLPNELTCTTALPGSS
B3: MRG-binding domain of Pf1 (residues 200–241) (domain or fragment, human, UniProt Q96QT6 200-241, looked up)
chain: DYVQPQLRRPFELLIAAAMERNPTQFQLPNELTCTTALPGSS

Common to all, as to test: NMR titration
Test [1] deals with B2.
The target in test [2] is T1, full-length MRG15 (residues 1–323) (human, UniProt Q9UBU8-2 1-323).
The target of test [3] is T1, full-length MRG15 (residues 1–323). The source holds these as a separate data set.

Like-named read-outs stand apart in the source and are kept apart here.

With B1, the binding result in test [1] is recorded as “binds”.
Take B2: the binding result in test [2] is reported as “binds”.
For B3, in test [3], the binding result was “binds”.

For the origin of these results see paper PMC3428507 (Journal of molecular biology, 2012).
